Key:
[1] = target: serpins of normal human plasma; assay: cell-based or functional assay
serpins of rabbit plasma = assay: cell-based or functional assay

Inactivation in Plasma (t1/2 Relative to wt), Human (x (relative to wt)) [1] | Inactivation in Plasma (t1/2 Relative to wt), Rabbit (x (relative to wt)) (serpins of rabbit plasma) | Binder
8.5 | > 20 | activated human protein C derivative H10Q:S11G:Q32E:N33D:L194S:T254S, P04070 43-197; P04070 212-461 (enzyme, here or on the partner: Asn-linked oligosaccharides; gamma-carboxy-glutamates in the gla-domain; one erythro-beta-hydroxy-Asp; Asn-linked oligosaccharide) light: ANSFLEELRQGSLERECIEEICDFEEAKEIFEDVDDTLAFWSKHVDGDQCLVLPLEHPCASLCCGHGTCIDGIGSFSCDCRSGWEGRFCQREVSFLNCSLDNGGCTHYCLEEVGWRRCSCAPGYKLGDDLLQCHPAVKFPCGRPWKRMEKKRSHL heavy: LIDGKMTRRGDSPWQVVLLDSKKKSACGAVLIHPSWVLTAAHCMDESKKLLVRLGEYDLRRWEKWELDLDIKEVFVHPNYSKSTSDNDIALLHLAQPATLSQTIVPICLPDSGLAERELNQAGQETLVTGWGYHSSREKEAKRNRTFVLNFIKIPVVPHNECSEVMSNMVSENMLCAGILGDRQDACEGDSGGPMVASFHGTWFLVGLVSWGEGCGLLHNYGVYTKVSRYLDWIHGHIRDKEAPQKSWAP
5.8 | 8.5 | activated human protein C derivative S11G:Q32E:N33D:L194S, P04070 43-197; P04070 212-461 (enzyme, here or on the partner: Asn-linked oligosaccharides; gamma-carboxy-glutamates in the gla-domain; one erythro-beta-hydroxy-Asp; Asn-linked oligosaccharide) light: ANSFLEELRHGSLERECIEEICDFEEAKEIFEDVDDTLAFWSKHVDGDQCLVLPLEHPCASLCCGHGTCIDGIGSFSCDCRSGWEGRFCQREVSFLNCSLDNGGCTHYCLEEVGWRRCSCAPGYKLGDDLLQCHPAVKFPCGRPWKRMEKKRSHL heavy: LIDGKMTRRGDSPWQVVLLDSKKKSACGAVLIHPSWVLTAAHCMDESKKLLVRLGEYDLRRWEKWELDLDIKEVFVHPNYSKSTTDNDIALLHLAQPATLSQTIVPICLPDSGLAERELNQAGQETLVTGWGYHSSREKEAKRNRTFVLNFIKIPVVPHNECSEVMSNMVSENMLCAGILGDRQDACEGDSGGPMVASFHGTWFLVGLVSWGEGCGLLHNYGVYTKVSRYLDWIHGHIRDKEAPQKSWAP

More lines, now with the values behind:

Binder | Inactivation in Plasma (t1/2 Relative to wt), Human (x (relative to wt)) [1] | Inactivation in Plasma (t1/2 Relative to wt), Rabbit (x (relative to wt)) (serpins of rabbit plasma)
wild-type human activated protein C, P04070 43-197; P04070 212-461 (enzyme, here or on the partner: Asn-linked carbohydrate at three sites; vitamin K-dependent gamma-carboxylation of nine glutamic acid residues within the amino-terminal 45 residues (gla-domain); one erythro-beta-hydroxy-Asp; Asn-linked carbohydrate) light: ANSFLEELRHSSLERECIEEICDFEEAKEIFQNVDDTLAFWSKHVDGDQCLVLPLEHPCASLCCGHGTCIDGIGSFSCDCRSGWEGRFCQREVSFLNCSLDNGGCTHYCLEEVGWRRCSCAPGYKLGDDLLQCHPAVKFPCGRPWKRMEKKRSHL heavy: LIDGKMTRRGDSPWQVVLLDSKKKLACGAVLIHPSWVLTAAHCMDESKKLLVRLGEYDLRRWEKWELDLDIKEVFVHPNYSKSTTDNDIALLHLAQPATLSQTIVPICLPDSGLAERELNQAGQETLVTGWGYHSSREKEAKRNRTFVLNFIKIPVVPHNECSEVMSNMVSENMLCAGILGDRQDACEGDSGGPMVASFHGTWFLVGLVSWGEGCGLLHNYGVYTKVSRYLDWIHGHIRDKEAPQKSWAP | 1 | 1
activated human protein C derivative H10Q:S11G:Q32E:N33D:L194S, P04070 43-197; P04070 212-461 (enzyme, here or on the partner: Asn-linked oligosaccharides; gamma-carboxy-glutamates in the gla-domain; one erythro-beta-hydroxy-Asp; Asn-linked oligosaccharide) light: ANSFLEELRQGSLERECIEEICDFEEAKEIFEDVDDTLAFWSKHVDGDQCLVLPLEHPCASLCCGHGTCIDGIGSFSCDCRSGWEGRFCQREVSFLNCSLDNGGCTHYCLEEVGWRRCSCAPGYKLGDDLLQCHPAVKFPCGRPWKRMEKKRSHL heavy: LIDGKMTRRGDSPWQVVLLDSKKKSACGAVLIHPSWVLTAAHCMDESKKLLVRLGEYDLRRWEKWELDLDIKEVFVHPNYSKSTTDNDIALLHLAQPATLSQTIVPICLPDSGLAERELNQAGQETLVTGWGYHSSREKEAKRNRTFVLNFIKIPVVPHNECSEVMSNMVSENMLCAGILGDRQDACEGDSGGPMVASFHGTWFLVGLVSWGEGCGLLHNYGVYTKVSRYLDWIHGHIRDKEAPQKSWAP | 5.9 | 8.5
activated human protein C derivative S11G:Q32E:N33D:L194S:T254S, P04070 43-197; P04070 212-461 (enzyme, here or on the partner: Asn-linked oligosaccharides; gamma-carboxy-glutamates in the gla-domain; one erythro-beta-hydroxy-Asp; Asn-linked oligosaccharide) light: ANSFLEELRHGSLERECIEEICDFEEAKEIFEDVDDTLAFWSKHVDGDQCLVLPLEHPCASLCCGHGTCIDGIGSFSCDCRSGWEGRFCQREVSFLNCSLDNGGCTHYCLEEVGWRRCSCAPGYKLGDDLLQCHPAVKFPCGRPWKRMEKKRSHL heavy: LIDGKMTRRGDSPWQVVLLDSKKKSACGAVLIHPSWVLTAAHCMDESKKLLVRLGEYDLRRWEKWELDLDIKEVFVHPNYSKSTSDNDIALLHLAQPATLSQTIVPICLPDSGLAERELNQAGQETLVTGWGYHSSREKEAKRNRTFVLNFIKIPVVPHNECSEVMSNMVSENMLCAGILGDRQDACEGDSGGPMVASFHGTWFLVGLVSWGEGCGLLHNYGVYTKVSRYLDWIHGHIRDKEAPQKSWAP | 13 | > 20
